Source: publication PMC7997955

Molecular target: Full-length human AURKA^T288V (human) (UniProt O14965)
Assay: fluorescence polarisation; competitive displacement: 5 nM FITC-Tpx2^1–43 and 35 nM AURKA kept constant, unlabeled competitor (Bora or Tpx2) varied; 25 mM HEPES pH 7.5, 50 mM NaCl, 10 mM MgCl2, 0.1 mg/mL BSA, 0.01% Brij, 3 mM ADP, 2 mM DTT

Full-length human AURKA^T288V (human), sequence (O14965 other isoform, or with tags, fused parts or gaps T288V | T288V): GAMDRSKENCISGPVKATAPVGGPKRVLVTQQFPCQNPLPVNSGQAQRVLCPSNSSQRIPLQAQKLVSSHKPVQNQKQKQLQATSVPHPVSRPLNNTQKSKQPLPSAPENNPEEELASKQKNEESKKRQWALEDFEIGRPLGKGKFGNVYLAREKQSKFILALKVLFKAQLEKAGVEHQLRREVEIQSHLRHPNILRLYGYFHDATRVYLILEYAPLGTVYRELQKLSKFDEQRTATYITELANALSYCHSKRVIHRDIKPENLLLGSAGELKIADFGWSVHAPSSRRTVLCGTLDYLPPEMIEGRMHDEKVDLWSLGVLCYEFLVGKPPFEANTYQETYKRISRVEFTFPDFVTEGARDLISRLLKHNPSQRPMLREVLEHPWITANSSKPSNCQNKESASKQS

“pBora^18–120 (from UniProt Q6PGQ7 18-120) (domain or fragment)” showed a fold less efficient displacement of FITC-Tpx2^1–43 than pBora^1–224 of 20 fold.
